The nature of this data set: soluble on expression in E. coli; label from the status in PepcDB or PDB records.
Take “MAHHHHHHMVVFINGLPVLTFELKNSLTKQTVADAVVQYQTDRNPAELLFQLGRCIAHVAVDDAEVRFCTHLTGKTSWFLPFNQGWNSGAGNPPNPNGLRTDYLWKQVLAKESLANIIENYAQVIEEEEEDTNGRKRRTRKQIFPRFHQLRTVRALMRRSRADGVGKRYLIQHSAGSGKSNTIAWLAHQLVELKTAADNTQAQFDSVIVITDRRALDAQIARTIKAYDHVASIYGHSESADELRTFLAPGQEDHRHHGAEVPVHPDELGGTL”: the “soluble on expression in E. coli” value is listed as “not soluble”.

Regarding “GERQVYRKIRDRASYAFALISVAAVVRMEEGRIATARLAFGGLAHKPWRDPEVEACLEGETPSDDLFDRAADRLLQSARGQGENDFKIPLTRRALTAALREATG”, the “soluble on expression in E. coli” value is listed as “not soluble”. As to “ADVAIVGGGFVGLWTAITLKQLEPDARVLLLEQDVCGGGASGRNGGFVMSWWPKIGTLLGFCSEAQARFLGESAERAIQELGEFCARHDIDAHFQQKGWLWTATTAHHLDAWNDTLAACERLGVSPFERLDASEVARRTGSPVHLAGVFERSNATVQPALLVQGMRRVALALGVEIHERCGVSQIVPGQPAQLLSAGARVQAKAVVLATNAWSAALPRLSRLIVPVNSSIAVTEAIPQRLERIGWTGGEAITDSQLMVDYYRTTRDGRIAFGKGTGALSYGSRIGRVFDVDRESLALTEADFRRTYPSLGDIPLVDGWSGPIDRTYDSLPVFGRLHENIHYGIGWSGNGVGPSRLGGRILASLALGRDDPWSR”, the “soluble on expression in E. coli” value is “not soluble”. The value for “MGSDKIHHHHHHMESFNEYHIDPKQFPFLKNFQDNWQVIRDEYTSFINNASNEELKFTYDVLGPKSQTIKTKGKSKYSAFGILFQGMFIEKYIQAHQIKYPDYGPDEASKKALVLREKYFTNLANVIKDVNLIEDDIIRNVYYGTFHPGLDIKLHVNYNPHTNRGYLGLIVPEGDVAMKICHDQLYWHEGKFLVLDHSYPHCPHNYTSYDRTVLVVDFFKPDKPRDEVIEFEKEQVTQRMQDNPYSLGVFGKSDKAKEEDFIKYGLAHQLEWDKALI” was “not soluble”; that for “MGHHHHHHGGHMSLITVMNRIGVKPEFAAQFEESFRNRAGLVDGMPGFIRNEVLKPTKPGDPYIVLTYWQDEPSFRAWTESDEFKQGHARSGSLPHDAFTGRPVLEVHDVLLSSDNEGGS” was “soluble”; that for “MGHHHHHHSHLPGNTRKMDKTTVLEKVIGFLQKHNEVSAQTEICDIQQDWKPSFLSNEEFTQLMLEALDGFIIAVTTDGSIIYVSDSITPLLGHLPSDVMDQNLLNFLPEQEHSEVYKILSSHMLVTDSPSP” was “soluble”. The value for “GPGSMNQLISVINELHDAFAGVKMNIKLNLPQIAVVGSQSCGKSSVLESIVGKDFLPRGSGIVTRCPLVLQLVQLPKSNEEEWGEFLHIPNKKFYDFNEIQNEITRRTIEIAGPSAITDKPINLKVYSSAVLNLTLVDLPGLVMNAVGDQPKDIDRQIKDMVTRYVLPKNTIILAISPANTDLATSQSLRLAKQLDPEGVRTVGVLTKIDLMDKGTDCFDVLQNRVLQLRHGFVGVVCRSQQDINDCKSMEDARRSEYEFFANSPIYSPIAEEAGTAYLSKKLNFLLLEHIKAVIPDLKHHVDQLMEATKKQMEKLGMFEQDITEPTAQLLYLIKVFSDALNQTIDGGITDATKELLGGARLDYIFHECFATYVTSLSATKDLTDDYIRINTRNMAGMHATLFPSDQVFVALSKQQINRLEEPCIKCVTFVYEELGKIVEICAGKVDRYPNLKEAVIAICKKMLFDYRLPTSTHVRTIIKAERGFINVKHPMMDELAQRALSNIYGTTSGESSSPPRNSSGPNASAAGGTQADPKQSGKDIKKDDKRGVRDEKRPEKPKEQGNTDSAISPGNKSDMNDVPSRIMLGKTMTMHEQFMNSAIREMVEGYFSIVKGNVADQVPKAITLLMITRLREEVYARLVSELYSDKTAKALLSEPPGIATQRKAAKEMLEALTKAQNALNSVRDYQLTKEPASSMQAGT” was “soluble”.

As for “MPKSNRRIVRARDSKGRFLPGKKAKSVASKSRSRSRSRSVVSRKTTRTNSLTRRRSSTKAPSSARQSRSRSRSRSRSRSKSRSTSSRRSRSRSARRVSFKRGRPASFAMKSPEEKTAAKKTAAKIILRVD”, the “soluble on expression in E. coli” value was “not soluble”. In the case of “MICNCFLLIIVTLVISNCDGICLNHEGWGNVGSVFTDPLCNVWCEIKLCGPGQCIEDPMTTAPARCVCEKCYRDNSGNAVYPGGNNDYQQQAQMNRERQLDRQYNRQLRQQNRMNKAWQRGWQ”, the “soluble on expression in E. coli” value was “not soluble”. The entry for “MTQAIKRVGVTDVVLRDAHQSLFATRLRIDDMLPIAQQLDQIGYWSLECWGGATFDSCIRFLGEDPWQRLRLLKQAMPNTPLQMLLRGQNLLGYRHYADDVVDTFVERAVKNGMDVFRVFDAMNDVRNMQQALQAVKKMGAHAQGTLCYTTSPVHNLQTWVDVAQQLAELGVDSIALKDMAGILTPYAAEELVSTLKKQVDVELHLHCHSTAGLADMTLLKAIEAGVDRVDTAISSMSGTYGHPATESLVATLQGTGYDTGLDIAKLEQIAAYFRDVRKKYHAFEGMMKGSDARILVAQVPGGMLTNMESQLKQQNALDKLDLVLEEIPRVREELGFLPLVTPTSQIVGTQAVINVVLGERYKTITKETSGVLKGEYGKTPAPVNTELQARVLAGAEAITCRPADLIAAEMPTLQDRVLQQAKEQHITLAENAIDDVLTIALFDQVGWKFLANRHNLEHHHHHH” is “soluble”. In the case of “HEHNTIPKGASIEVKVQQLDPVNGNKDVGTVTITESNYGLVFTPDLQGLSEGLHGFHIHENPSCEPKEEEGELTAGLGAGGHWDPKGAKQHGYPWQDDAHLGDLPALTVLHDGTATNPVLAPRLKHLDDVRGHSIMIHTGGDNHSDHPAPLGGGGPRMACGVIK”, the “soluble on expression in E. coli” value is listed as “soluble”.

As for “MGHVDREDLLNVIRHELRLEDDDGPGLCSRLLLNPDRKCRAGGLPLDFRLKNGDLMDDGDAGFDDIYEIPLYEEPIHTRTLINDSLALRTAEKIKEEGRRDNFYTGPLDELFVKQEVNWPPKTPISTEKSAIERYLEENSANLNNPLGEYSKFAATTTDPSRQIEIIIPMSCDEEIGFKTLKIEVLTTARIREVIGYCLLQYYLTFDSYLPGEVDDYQFYLAEEDGEIEHELPPLDSSKLVGQVGFTCLGLVSRIKKNGNSRQKRAVAVWFVDKDQYVIEVDNMEKPLRWLRDEAFRLREETVKEREPLFQGLLDIKEYYMEAVDNFDVKLDLEASISSARSLEFVMIRKNSSRAGFHPRGGRYGRQMSAMLTLKMPNSPIAAGPMTPLPTVMEESPAVAGTSNGFGFPKAESCGAIASTPGVTWNDDGGQLSSFIVQRIHKFKPKWKANLSTVV”, the “soluble on expression in E. coli” value is given as “not soluble”.

With “SASWLPETLFEIVGQGPAPSKDYYQLLITRTQIIFRWWKISLRSEYRSAKPGETKESHEDFLDNSHLQVQVAVVFGTKILDYVFNLCEGKFDYLERLSDRLLLKIICYLDLEDIASLSQTSSKFEKLCKSDLLWEQIVQSTCDTITPDMRALAKNMGWRQMFLTNNIQLQRQTRKKKQRQENQAEKLA”, the “soluble on expression in E. coli” value is reported as “soluble”. The entry for “KLDKIDNKNRRIRKKLFLGEFAILGFEISCETDINDFDRYDAFVDDFIDYIDTLGLCFGGGGLELFEGFLCSTERYGSATEEQKAQVVAWLEARPEVKSAKAGDLLDANY” is “not soluble”; for “MGTVHARSMDSYPMYGRDLGVNTDDMEVMEAVQETKQEVLENKDVVVQHVNIEGLGRTKEDYLGYEISDVFTARNLVEVMRKSHEARQRLLRLGIFRDVEVVIDISEGADALPNGLDVTFEVTELKRLTGSYNTMVGNNEGSMVLGIKLPNMLGRGEKLTFQFSYGTKETSYGLSFFKPQSGYFERNFTVNLYKVTGQFPWSSLKETDRGVSTELSLPLWMTDHTLKWEGVWRELGCLARSASFAVREESGHTLKSALSHTMVVDTRNSAILPRKGALLRINQELAGYTGGDANFLKEDVELQLNKQFIWGSVLSASLWGGMIYPLGAQPTSIADRFYLGGPTSVRGFGMYSIGPQSEGDYLGGEAYWAGGLHLYTPLPFRSNKGGLADLFRTHFFLNAGNICNLNYGEGPRAHLQKLAECIRWSYGAGIILRLGNIARLELNYCFPMGVQSGDRICDGVQFGAGIRFL” it is “soluble”. The value for “MGSDKIHHHHHHMEQLLHYVWKHKIFPLHELQTTTGLPVEVIDTGLPNSDSGPDFFNAKLKIGGTLWVGNVEIHTASSDWFRHGHDRDIAYDSVILHIVTEIDCEIYRSNGEPVPQLRLPCPEQVKEHYDELCRADIHPPCYSILETLPKLTIHSWLTALQTERFDQKNRTITRRLQRCNQHWEDAFFITLARNFGFGLNGDAFETWANLLSFRAIDKHRDDLTQVEAFFFGQAGLLEGESADDYFSWMQKEFRYLQHKFELPPVMNPSLWRFLRLRPGNFPHVRLAQLASLYYRERSLFSRVMEAETLKDLKHIFAGHTSAYWEEHFMFGKSSPRREKSIGAGAKELIIINTVIPFLYAYGLHKADERLCERAASLLEELKAENNYVTRMWSGAGIPVQTAADSQALLQLQKEYCDKKKCLYCRFGYEYLRHK” was “not soluble”; that for “MLCAQTFSEEDFRIRGYVDIHRLDTTIRLALIYSTTDNFVGEDMYGDFDKAYFEKGFAERIHQAQRLLRKEHPDYSLLIYDASRPISIQRRMYTLVKGTSKAVYVANGNRGGKHNYGVAVDLTIVDRDGKPLDMGTPVDHFGRAAHVGQEERLAADGLISREAVRNRRLLRRIMKSVGLVPYRREWWHYELPESMSHTRSHYRLLDF” was “not soluble”; that for “MRAVVLVPFLKQQRENRDAASAPAAPGRSVEAKLEEAKGLALAIDLEVTQGLVVPVNQPRPATLFGTGKIEEIGHLLDETNSGLVIVDHPLTPVQQRNLEKQWNAKVIDRTGLILEIFGRRASTKEGTLQVDLAHLNYQKGRLVRSWTHLERQRGGAGFMGGPGETQIEADRRLLQDRIVKLEKELEQVVRTRQLHRAKRRKVPHPIVALVGYTNAGKSTLFNRITGAGVLAEDMLFATLDPTLRRMKLPHGRTVILSDTVGFISDLPTHLVAAFRATLEEVLEA” was “not soluble”.

In the case of “MKMPEHTDTPKEKILVYIRAEKQKTLHRRQVCINDIASVYCKYSRYEGQIKGIIVDKIRGKKSVISVMKIIEQITEIYDDAQVISIGEPEVLVEYDDNSKNKILEA”, the “soluble on expression in E. coli” value is “soluble”. As for “MQTFNRERLEFALDKRGCTQTKLAELLGITARQVRNYVKDEQIPDLNELANLLEFPVHFFTNDERLPELKSQAVSFRARSRTSKRLEKQALNHSITAFLLNDWLETEFTLSQAVLPDFSDISPEEAAQELRLEWGLGNEPIPNMITLLEVKGVRVFSLSLDTKDIDAFCTWYENHPFVFLNTQKSAERSRFDAAHELGHLIRDKYSMEHSKNSEITEDEPRDIIEKEANAFASAFLMPEAALRLYRHVPITIENLLKIKRRFGVSLVALAYRMHKLGMITDRMYIHNLCPLFAKKKYRTIEPEPMEREISSALRKMLTILKNDGIGIEQIAENLNVSPKDVADLTFGLVERDLNRYRKLRLVK”, the “soluble on expression in E. coli” value is on record as “not soluble”.

As to “MGSDKIHHHHHHGNLGKYSIYYAQNLPHETGTNSVMTAVFKHLGDVYIPYNSLDNDGNKMLETEDKTIHYQAGGMFSPTMITVKSTKDGDVLLSLQSDSQFPYCIYDFTENTYYGFNRAGTLVAEFIDSNTNVLSSHRVSALNTVNKLQNEMYGPIISHRKVPKINLQFIYNFVNEGKFK”, the “soluble on expression in E. coli” value was “not soluble”.

On to “MLWQQKSFTEQTEQGTLYIVPTPIGNLEDMTFRAVRTLQEADVIAAEDTRQTKKLLAHFGIHTPLVSYHEHNKYASGRQLVEWLKEGKTVALVSDAGMPGISDPGYELIAAALAERCRVVPLPGANAALTALVASGLPTDRFLFVGFLKRAKKEKKEQLLSLKTAAETLIFYEAPHRLKETLALMYDIFGNRRIALGRELTKRFEEFIRGDLSDAVAWAEEHDIRGEFCLIVEGARDGNKQEQEGEEWWQPLSLVEHVDYYIREHSLSVKEAVKQAASDRNMSKRDVYRQYHQQQEEEKKEFL”, for which the “soluble on expression in E. coli” value is “not soluble”.

Values taken from the DeepSol protein solubility set.
